Measurements reported in US20180312587A1 (ADURO BIOTECH HOLDINGS EUROPE B V, published 2018).
Read-outs that look alike come from different tables or passages of the source.

Tests used:
human SIRPα variant 1 [1] = molecular target: T1, human SIRPα variant 1 (human, UniProt P78324 31-504); assay: CELISA, CHO-K1 transfectants, point mutant study
T1 construct: full length ORF on transfected CHO-K1 or HEK293 cells; entry includes the signal peptide; also called hSIRPαV1; SIRPαV1
Protocol: Amino acids in the hSIRPα IgV domain that are altered in hSIRPβ1 were mutated by using the QuikChange II Site-Directed Mutagenesis Kit (Stratagene) and the full length hSIRPαV1 sequence (SEQ ID NO: 33) as donor cDNA. Binding of hSIRPα.40A to hSIRPαV1 point mutants was tested using CELISA. To this end, CHO-K1 cells were transiently transfected, using Lipofectamine 2000, with cDNA encoding the full length open reading frame of hSIRPαV1 and mutants thereof, and hSIRPβ1 subcloned into the pCI-neo vector. Transfected cells were seeded in culture medium (DMEM-F12 (Gibco) supplemented with 5% New Born Calf Serum (BioWest) and Pen/Strep (Gibco)) in 96-well flat-bottom tissue culture plates and incubated at 37° C., 5% CO₂ and 95% humidity for 24 hours. Subsequently, culture medium was removed and cells were incubated for 1 hour at 37° C., 5% CO₂ and 95% humidity with purified hSIRPα antibodies (used at 10 μg/mL and dilutions thereof). Next, cells were washed with PBS-T and incubated for 1 hour at 37° C., 5% CO₂ and 95% humidity with goat-anti-mouse IgG-HRP (Southern Biotech). Subsequently, cells were washed three times with PBS-T and immunoreactivity against hSIRPαV1, hSIRPαV1 mutants, and hSIRPβ1 was visualized with TMB Stabilized Chromogen (Invitrogen). Reactions were stopped with 0.5 M H₂SO₄ and absorbances were read at 450 and 610 nm. […]

human SIRPα variant 2 [2] = molecular target: T2, human SIRPα variant 2 (human, UniProt P78324 31-504); assay: flow cytometry, blockade of DyLight488-hCD47/Fc binding to THP-1 cells
T2 construct: full length ORF on transfected CHO-K1 cells; also called hSIRPαV2; SIRPαV2
Outline: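 THP-1 or U-937 monocyte cells in 96-well round-bottom plates were incubated for 45 minutes at 4 °C in PBS/1% BSA with FcR Blocking Reagent and a dilution series of anti-SIRPα antibody. Cells were washed, resuspended with 0.1 μg/mL DAPI and measured by flow cytometry, with analysis in FlowJo. IC50 is the antibody concentration giving half-maximal inhibition of CD47/Fc binding.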

human SIRPγ = molecular target: T3, human SIRPγ (human, UniProt Q9P1W8 29-387); assay: CELISA, CHO-K1 transfectants; average of two experiments
T3 construct: on transfected CHO-K1 cells; also called hSIRPγ
Protocol: (§1) The binding specificity of antibodies hSIRPα.40A and hSIRPα.50A to hSIRPα were compared in a CELISA format. In short, CHO-K1 cells were transiently transfected with hSIRPαV1, hSIRPαV2, hSIRPβ1, hSIRPβL, and hSIRPγ cDNAs. Subsequently, hSIRPα binding was assessed by CELISA using CHO-K1.hSIRPαV1, CHO-K1.hSIRPαV2, CHO-K1.hSIRPβ1, CHO-K1.hSIRPβL, and CHO-K1.hSIRPγ cells. Detection of bound antibody was done with goat-anti-mouse IgG-HRP (Southern Biotech).

human SIRPα variant 1 [3] = molecular target: T1, human SIRPα variant 1; assay: as above
Protocol: as §1

human SIRPα variant 2 [4] = molecular target: T2, human SIRPα variant 2; assay: as above
Protocol: as §1

human SIRPα variant 2 [5] = molecular target: T2, human SIRPα variant 2; assay: flow cytometry, blockade of DyLight488-hCD47/Fc binding to THP-1 cells; remark: listed apart in the source
Protocol: hCD47 blockade for the KWAR23, clone 18D5, and hSIRPα.40A antibodies was assessed by flow cytometry. For this purpose, THP-1 (ATCC TIB-202) and U-937 (ATCC CRL-1593.2) monocyte cell lines were used as the source of hSIRPα in the assay. THP-1 and U-937 cells were seeded in 96-well round bottomed tissue culture plates and incubated for 45 minutes with FcR Blocking Reagent (Miltenyi Biotec) and indicated anti-hSIRPα antibodies (20 μg/mL and dilutions thereof) in PBS/1% BSA at 4° C. […] After this labeling procedure, cells were washed two times, resuspended in PBS/1% BSA containing 0.1 μg/mL DAPI (BioLegend), and analysed by flow cytometry on the FACSVerse (BD Biosciences). Data were processed and analysed with FlowJo V10 software (FlowJo, LLC) and plotted using GraphPad Prism 6 (GraphPad Software, Inc.). Binding of recombinant hCD47 fused to an Fc domain of human IgG1 was monitored in the presence of increasing amounts of the anti-hSIRPα antibodies. […] IC50 values represent the concentration at which half of the inhibition is observed.

T1 sequence (P78324 31-504 limits assumed, change not shown): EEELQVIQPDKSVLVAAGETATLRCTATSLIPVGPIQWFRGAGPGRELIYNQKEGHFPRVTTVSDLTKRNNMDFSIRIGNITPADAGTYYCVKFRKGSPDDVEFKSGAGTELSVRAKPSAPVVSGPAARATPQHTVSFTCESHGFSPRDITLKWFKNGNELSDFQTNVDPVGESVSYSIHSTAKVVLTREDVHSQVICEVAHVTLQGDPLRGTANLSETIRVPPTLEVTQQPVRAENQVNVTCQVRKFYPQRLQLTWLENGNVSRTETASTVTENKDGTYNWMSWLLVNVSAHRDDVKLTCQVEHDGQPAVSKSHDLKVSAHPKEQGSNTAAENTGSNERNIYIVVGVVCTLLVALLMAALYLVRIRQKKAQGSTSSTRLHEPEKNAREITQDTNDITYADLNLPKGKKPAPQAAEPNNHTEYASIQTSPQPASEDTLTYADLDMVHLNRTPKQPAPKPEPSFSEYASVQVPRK
T2 sequence (P78324 other isoform, or with tags, fused parts or gaps mutant limits assumed): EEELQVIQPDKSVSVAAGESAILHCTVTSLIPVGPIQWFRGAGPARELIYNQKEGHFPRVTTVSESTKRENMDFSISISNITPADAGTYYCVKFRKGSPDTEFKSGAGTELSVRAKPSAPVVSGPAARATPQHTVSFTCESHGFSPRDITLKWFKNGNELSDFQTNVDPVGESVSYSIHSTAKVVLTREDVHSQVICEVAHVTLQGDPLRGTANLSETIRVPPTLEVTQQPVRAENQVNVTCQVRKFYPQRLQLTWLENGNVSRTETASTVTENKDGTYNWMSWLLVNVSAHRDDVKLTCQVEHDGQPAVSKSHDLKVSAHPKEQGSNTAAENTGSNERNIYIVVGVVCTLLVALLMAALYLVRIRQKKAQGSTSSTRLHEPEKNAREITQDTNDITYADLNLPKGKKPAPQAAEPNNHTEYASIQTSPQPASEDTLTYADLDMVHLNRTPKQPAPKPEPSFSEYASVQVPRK
T3 sequence (Q9P1W8 29-387 limits assumed): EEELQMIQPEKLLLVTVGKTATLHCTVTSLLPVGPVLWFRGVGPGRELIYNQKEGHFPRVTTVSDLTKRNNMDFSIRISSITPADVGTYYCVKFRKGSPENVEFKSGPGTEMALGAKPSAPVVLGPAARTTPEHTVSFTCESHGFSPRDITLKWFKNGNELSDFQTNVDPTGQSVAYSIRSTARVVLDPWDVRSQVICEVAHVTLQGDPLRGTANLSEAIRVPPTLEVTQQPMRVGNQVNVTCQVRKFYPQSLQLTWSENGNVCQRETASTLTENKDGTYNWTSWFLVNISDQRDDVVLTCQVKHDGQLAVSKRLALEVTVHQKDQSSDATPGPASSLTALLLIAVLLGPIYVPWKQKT

Binder	EC50 (human SIRPα variant 1 [1]) [nM]	IC50 (human SIRPα variant 2 [2]) [nM]	EC50 (human SIRPγ) [nM]	EC50 (human SIRPα variant 1 [3]) [nM]	EC50 (human SIRPα variant 2 [4]) [nM]	IC50 (human SIRPα variant 2 [5]) [nM]
hSIRPα.50A (antibody, V domains shown, light chain constant domain not tied; also called mouse hSIRPα.50A; hSIRPα.50A.mIgG1) VH: QVQLQQSGPELVKPGASVRISCKASGFTFTNYYIHWVKQRPGQGLEWIGWIYPGNVNTKYNEKFKAKATLTADKSSTTAYMQLSSLASEDSAVYFCARPTIIATDFDVWGAGTTVTVSS VL: DIVMTQSHKFMSTSVGDRVNITCKASQGVGTAVGWYQQKPGQSPRLLIYWASTRHTGVPDRFTGSGSGTDFSLAISNVQSEDLADYFCQQYSTYPFTFGGGTNLEIK	0.534	7.83	1.99	1.43	1.16	
hSIRPα.40A (antibody, mouse IgG1, kappa, V domains shown, mouse antibody, full chains without signal peptide; also called mouse hSIRPα.40A) VH: EVQFQQSGTVLARPGTSVKMSCKASGSTFTSYWMHWVKQGPGQGLQWIGAIYPVNNDTTYNQKFKGKAELTVVTSTSTAYMEVSSLTNEDSAVYYCTRSFYYSLDAAWFVYWGQGTLVTVSA VL: DIQMTQSPSSLSASLGERVSLTCRASQDIGSRLNWLQQEPDGTIKRLIYATSSLDSGVPKRFSGSRSGSDYSLTISGLESEDFVDYYCLQYASSPFTFGGGTKLEINR	0.065	0.646	0.099	0.109	0.088	0.548
KWAR23 (antibody, V domains shown) VH: EVQLQQSGAELVKPGASVKLSCTASGFNIKDYYIHWVQQRTEQGLEWIGRIDPEDGETKYAPKFQDKATITADTSSNTAYLHLSSLTSEDTAVYYCARWGAYWGQGTLVTVSS VL: QIVLTQSPAIMSASPGEKVTLTCSASSSVSSSYLYWYQQKPGSSPKLWIYSTSNLASGVPARFSGSGSGTSYSLTISSMEAEDAASYFCHQWSSYPRTFGAGTKLELK						0.132
